Assay results as given in the supplement of paper PMC9170038.

System: MS2 coat protein
Experiment: apparent KD of MS2 coat protein; designed switch direction (-1 OFF switch, 1 ON switch): -1; higher = weaker reporter binding
How it was run: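 Normalised cluster fluorescence was curve-fitted, and each design's median over clusters is its apparent KD. Before this, SNAP-549-labelled MS2 coat protein was titrated from 0.7 or 1.5 nM, doubling to 3 µM, over RNA switches transcribed on Illumina chips by stalled E. coli RNA polymerase. Titrations had no input, 200 uM small-molecule ligand, or an oligonucleotide input, and steps lasted 0.8–1.5 h (lowest) to 10–20 min (highest).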

[1] = input ligand: microRNA oligo, concentration not stated
[2] = Eterna round: R95, input ligand: microRNA oligo, concentration not stated
[3] = Eterna round: R95, input ligand: FMN 200 uM
[4] = Eterna round: R95, input ligand: none

| Sequence | apparent KD of MS2 coat protein (input ligand: FMN 200 uM) [nM] | apparent KD of MS2 coat protein [1] [nM] | apparent KD of MS2 coat protein (input ligand: none) [nM] | apparent KD of MS2 coat protein [2] [nM] | apparent KD of MS2 coat protein [3] [nM] | apparent KD of MS2 coat protein [4] [nM] |
| --- | --- | --- | --- | --- | --- | --- |
| UUAAAUCAUGUAGGAUAUGCGUGGCGAAGCUAUGCAGAAGGACAUGAGGAUCACCCAUGUUCUAGCGUCUGCGUACAGAUGCUA [Mat - Exclusion NG 1 - Mod of JL - D76] (Eterna round: R96, puzzle: Exclusion NG 1) | 359 | 26.9 | 38.3 | – | – | – |
| CAGCUGAAUGUCAGGAUAUCUAGAGCGAUAGCUCUAGAGAAGGGACAUGAGGAUCACCCAUGUCACUCCAGCUG [BmEx4/3-B4] (Eterna round: R97, puzzle: Brourd's mod of Exclusion 4) | 29.5 | – | 18.2 | – | – | – |
| GUGACCAUAGGAUAUACAUGAGGAUCACCCAUGUGCAAGUCGGAAGACCUGCGGUCAUGUAGAAGGAUGUAAUU [EX3 A.19] (Eterna round: R97, puzzle: Exclusion 3) | 18.3 | – | 20.9 | – | – | – |
| UACAUGAGGAUCACCCAUGUUUUGUCGUGUAUGGUAUUUAUCUAGGAUAUCAAUUUGUUAAUUUAUGAGAAGGAGAAUAUUAAU [JMF's solution 69] (Eterna round: R96, puzzle: Exclusion NG 3) | – | 29.6 | – | – | – | – |
| CUUAGACAUGAGGAUCACCCAUGUGAGGAUAUGAUGCAGCAGUGGUCUACGCUGUGCAUCAGAAGGCACAUGUG (puzzle: Exclusion 1) | – | – | – | 62.4 | – | – |
| GAUUAUGCGAGCUUUAGGGACAUGAGGAUCACCCAUGUUCGUCUUAUUAGUCUGGGUGCGCUAACAUACCUAAAUCU [JMF 53] (puzzle: Sensor v3, turn-off variant 1) | – | – | – | 148 | 90.1 | 175 |
| UGCGGUGAGGUAAGGAUAUUUGGGCAAUUACGCCCGGAGAAGGUACAUGAGGAUCACCCAUGUGCAGUAAGGCU [Eternabot (L2) Solution 18] (Eterna round: R97, puzzle: Brourd's mod of Exclusion 4) | 122 | – | 26.9 | – | – | – |
| AUAAUGUGAGGAUAUCAGUCGACUAGCCUCGGCUAGUCGACUGAGAAGGUACAUGAGGAUCACCCAUGUAGAUC [E4/20-A2] (Eterna round: R97, puzzle: Exclusion 4) | 84.3 | – | 26.4 | – | – | – |
| AUAAUGUGAGGAUAUCAGUCGACUAGCCUCGGCUAGUCGACUGAGAAGGCACAUGAGGAUCACCCAUGUGUUUC [E4/15-A2] (Eterna round: R97, puzzle: Exclusion 4) | 43.9 | – | 18.4 | – | – | – |
| GUAAACGAUCAGGAUAUAUCAAAUCAUAGCUUGAUAGAAGGGAUCACAUGAGGAUCACCCAUGUGAUCUUCUUA [Mat - Exclusion 6 - JL Mod - D36] (Eterna round: R97, puzzle: Exclusion 6) | 13 | – | 10.9 | – | – | – |
| AGAAGUAGUAUCCGAUCCUACAUGAGGAUCACCCAUGUAGCUAGACGUGCACGCGAUGCUCGUCAGACUACCAGAUG [salish99_TOv1_r3_030] (puzzle: Sensor v3, turn-off variant 1) | – | – | – | 205 | 156 | 405 |
| GGCGCCUCAGGAUAUCAGUCUGGAUCAGAAUAGAUCCUGACUGAGAAGGGACAUGAGGAUCACCCAUGUUCGCC [Eli 4x 4.29] (Eterna round: R97, puzzle: Exclusion 4) | 20.8 | – | 18.9 | – | – | – |
| GUUGCUACUGAGGAUAUUAUUUUACUCGACUGAUAAGAAGGCAGUACAUGAGGAUCACCCAUGUGGGUAGCCAG [Polaris16] (Eterna round: R97, puzzle: Exclusion 6) | 64.7 | – | 19.3 | – | – | – |
| GGUCAGACGGUAGGAUAUUCAUAUCGAGUGACCCUUUCAUAACAUGAGGAUCACCCAUGUCGGUGGGAGAAGGGCCGUACGGCG [salish99_ExNG02_R04_008] (Eterna round: R96, puzzle: Exclusion NG 2) | 41 | 31.9 | 33.6 | – | – | – |
| CGCACACAUGAGGAUCACCCAUGUGAGGAUAUCAUGCUUCGUAGUAAACUACGAAGUGUGAGAAGGCACAUGCC [Omei Ex1 D7] (Eterna round: R97, puzzle: Exclusion 1) | 24.2 | – | 18.4 | – | – | – |
| GACUUCUCUGAGGAUAUUGCAUCAUACGAUUUAUAAGAAGGCAGAACAUGAGGAUCACCCAUGUGGGUUUUUAG [Bingo-Bango-30] (Eterna round: R97, puzzle: Exclusion 6) | 102 | – | 55 | – | – | – |
| CCGGAAAGGAAGGAUAUGCUAGACGAUAGUCUAGCAGAAGGUCCUACAUGAGGAUCACCCAUGUGGUCCUCCGG [Mat - Exclusion 6 - Eli Mod - D33] (Eterna round: R97, puzzle: Exclusion 6) | 274 | – | 1210 | – | – | – |

| Sequence | apparent KD of MS2 coat protein (input ligand: FMN 200 uM) [nM] | apparent KD of MS2 coat protein [1] [nM] | apparent KD of MS2 coat protein (input ligand: none) [nM] | apparent KD of MS2 coat protein [2] [nM] | apparent KD of MS2 coat protein [3] [nM] | apparent KD of MS2 coat protein [4] [nM] |
| --- | --- | --- | --- | --- | --- | --- |
| GCAGUGUCAGGAUAUUCGAGUUCGAGUGAAAGCUUGAGCUUGAAGAAGGGACAUGAGGAUCACCCAUGUGCUGU [-28.7, -27.7 kcal, A 27%, 1bis-(ca)1bis] (Eterna round: R97, puzzle: Exclusion 4) | 117 | – | 42.1 | – | – | – |
| UUAUUAUAUGUAGGAUAUGCGUAUUGUUGUUAUGCAGAAGGACAUGAGGAUCACCCAUGUAUAUUAUUGUUAUAUAUUAUAUAU [Title] (Eterna round: R96, puzzle: Exclusion NG 1) | 43 | 20.2 | 25.3 | – | – | – |
| GCGCCAUCGUGAGAUGGCGUAACUACAUGAGGAUCACCCAUGUAGGAUAUCGAUUGCUUUGCAGUCGAGAAGGGCAUGGUUUGU [JL ENG3 3.86] (Eterna round: R96, puzzle: Exclusion NG 3) | 56.1 | 20.2 | 22.8 | – | – | – |
| UUGUUAUAUGUAGGAUAUGCGUAUUAUUAUUAGGCAGAAGGACAUGAGGAUCACCCAUGUAUGUUGUUGUUAUAUAUUAUAUAU [Title] (Eterna round: R96, puzzle: Exclusion NG 1) | – | 20.6 | – | – | – | – |
| AGAAGACAUGAGGAUCACCCAUGUAAGGAUAUCGAAGGUAAGAGAGGAAAGAAGUUAACGAGAAGGUACAGGUG [JR_Exclu1_Sub097] (puzzle: Exclusion 1) | – | – | – | 123 | 101 | 116 |
| GAGUUAGCGUGAGGAAUAUACAUGAGGAUCACCCAUGUUAGCUUAUAUAUUGCUCGUCUUAUAACAACAAUUAACUG [Mod JX-Electric-eye2] (Eterna round: R97, puzzle: Sensor, turn-off variant 1) | 25.4 | – | 27.2 | – | – | – |
| GGUAGUAUGAGUAGUCCUCAUUGAAGAGAUUGGUAAGAUACAUGAGGAUCACCCAUGUUUGAACAAGCUUUUGCUCA [JR_Sv3TOV2_Sub006] (puzzle: Sensor v3, turn-off variant 2) | – | – | – | 53 | 141 | 298 |
| UACGUGUCAGGAUAUUUGAAGCGAAUCACGAGCAUUCGCGUGGAGAAGGGACAUGAGGAUCACCCAUGUAGGCG [Eternabot (L1) Solution 32] (Eterna round: R97, puzzle: Exclusion 4) | 370 | – | 242 | – | – | – |
| ACUAGAUGAGGAUAUGCAUAUUUUCGUGUUCUUCUAGGUUAACAUGAGGAUCACCCAUGUAGAAGGCGUCUAUG [Exclusion 2 - 24] (puzzle: Exclusion 2) | – | – | – | 19.3 | – | – |
| AAAACGUGAGCAGGAUAUGCAAUAAGAUCAGGUCUUCACAUGAGGAUCACCCAUGUAUAAGGGACGCAGAAGGGCUGAUAAAAG [Aesedat] (Eterna round: R96, puzzle: Exclusion NG 2) | 98.4 | 49.6 | 60.9 | – | – | – |
| GCACGGAGUGUAGGAUAUCUGUGCGAUUAGCUCAGAGAAGGACACAUGAGGAUCACCCAUGUGUAACAACACAAUAAUCCGUGC [Eli exng1 - 072] (Eterna round: R96, puzzle: Exclusion NG 1) | 12.3 | 11.2 | 14.2 | – | – | – |
| AACGGUGGGUAGGAUAUCCGGUUCUAGUUGCCAGGAGAAGGGCCCACAUGAGGAUCACCCAUGUGGGUGGGCUC [Maesri] (Eterna round: R96, puzzle: Exclusion 6) | 44.6 | 43.1 | 81.3 | – | – | – |
| UAAAUUAUAGUAAGGAUAUCAGUCGCGAAAGUGGCUGAGAAGGUACAUGAGGAUCACCCAUGUGAAAUAAGAAU [Mod of Zala 17 - Jieux - Brourd's Mod of Exclusion 4] (Eterna round: R97, puzzle: Brourd's mod of Exclusion 4) | 25.7 | – | 20 | – | – | – |
| CGUUGGCGAGGAUAUACAUGAGGAUCACCCAUGUGAGAGAUACUAGUGAGGUCGAUUAGUAGAAGGCGCUGACG [Mat X3R4 m1] (Eterna round: R97, puzzle: Exclusion 3) | 949 | – | 34.9 | – | – | – |
| AUAAGUGAUAAGGAUAUUACUAGCCUCGGCUAGUGAGAAGGUAUCACAUGAGGAUCACCCAUGUGUUCCAAUAA [Ex6/7-B2] (Eterna round: R97, puzzle: Exclusion 6) | 297 | – | 119 | – | – | – |
| UGCCGUUUAGGAUAUACAUGAGGAUCACCCAUGUGACACACAUAUUUUACAAAACCAUGUAGAAGGAAACGGCA [E3-1.0] (Eterna round: R96, puzzle: Exclusion 3) | 542 | 95.4 | 114 | – | – | – |
| GCGUUUUGGUGAGGAUAUCGGCCCUAAACCGGGCAACAUGAGGAUCACCCAUGUACGUGAUCCUGCGAGAAGGCACCGAUUAUA [Digeerle] (Eterna round: R96, puzzle: Exclusion NG 2) | 122 | 104 | 123 | – | – | – |
